According to patent publication US9365620B2, “Methods for treating pain” (NoNO NC., priority 2008, dated 2016):

Biological target: N-type calcium channels (Mus musculus, UniProt O55017)
Assay type: cell-based, Swiss mice
Conditions: Tat-NR2B9c 100 μM, conotoxin 1 μM, FIG. 5A

## YGRKKRRQRRRKLSSIESDV [Tat-NR2B9c] (Synthetic peptide Tat-NR2B9c) [chimeric peptide of a standard tat peptide and …]
  additional inhibition of Ca^2+ current once N-channels are blocked by Omega conotoxin: no additional inhibition
